Laboratory results taken from patent US20170340735A1 (published 2017).

How the values were obtained:
[1] = target: T1, recombinant monomeric cynomolgus monkey TIGIT-His (cynomolgus monkey); assay: BLI (Octet QKe), SEC1 on AMC sensor, cynomolgus monkey TIGIT-His in solution
T1 construct: also called Cyno TIGIT His; cTIGIT; not shown: His tag

[2] = target: T2, recombinant monomeric mouse TIGIT-His (SEQ ID NO: 3) (mouse, UniProt P86176 29-148); assay: BLI (Octet QKe), SEC1 on AMC sensor, mouse TIGIT-His 33 to 1.22 nM, 1:1 global fit
T2 construct: also called mTIGIT; not shown: His tag
T2 sequence: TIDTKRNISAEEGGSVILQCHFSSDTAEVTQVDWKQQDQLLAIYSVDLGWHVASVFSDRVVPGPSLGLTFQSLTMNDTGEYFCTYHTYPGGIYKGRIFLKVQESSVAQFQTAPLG

[3] = target: T3, recombinant monomeric human TIGIT-His (human, UniProt Q495A1 22-141); assay: BLI (Octet QKe), SEC1 on AMC sensor, human TIGIT-His 33.8 to 1.25 nM, 1:1 global fit
T3 construct: also called hTIGIT; not shown: His tag
T3 sequence: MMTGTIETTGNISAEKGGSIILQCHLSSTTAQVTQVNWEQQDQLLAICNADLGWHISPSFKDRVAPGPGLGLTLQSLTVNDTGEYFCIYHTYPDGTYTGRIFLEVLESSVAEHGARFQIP

[4] = target: T4, human TIGIT on the cell surface (human, UniProt Q495A1 22-244); assay: flow cytometry on human primary CD8+ T cells
T4 construct: Expressed on engineered Jurkat cells or naturally on human primary CD8+ T cells (the cells are named under assay); also called Human TIGIT Jurkat; human TIGIT expressing Jurkat cells
T4 sequence: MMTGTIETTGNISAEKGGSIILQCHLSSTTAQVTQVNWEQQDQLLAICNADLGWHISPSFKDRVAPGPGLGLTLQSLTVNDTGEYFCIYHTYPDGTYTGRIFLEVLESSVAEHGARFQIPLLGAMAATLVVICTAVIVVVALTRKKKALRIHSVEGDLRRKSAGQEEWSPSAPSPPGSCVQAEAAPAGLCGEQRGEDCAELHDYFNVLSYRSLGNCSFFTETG

[5] = target: T5, mouse TIGIT on primary murine Tregs (mouse, UniProt P86176 29-249); assay: flow cytometry on primary murine Tregs, average
T5 construct: whole, on cells; also called Mouse Tregs
T5 sequence (looked up): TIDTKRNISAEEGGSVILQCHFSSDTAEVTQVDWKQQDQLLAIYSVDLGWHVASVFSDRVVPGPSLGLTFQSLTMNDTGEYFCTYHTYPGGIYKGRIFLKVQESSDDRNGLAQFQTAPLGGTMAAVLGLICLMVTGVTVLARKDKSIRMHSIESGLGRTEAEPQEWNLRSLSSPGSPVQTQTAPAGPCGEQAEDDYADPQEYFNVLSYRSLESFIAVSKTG

[6] = target: T6, cynomolgus monkey TIGIT on the cell surface (cynomolgus monkey); assay: flow cytometry on cynomolgus monkey primary CD8+ T cells
T6 construct: Expressed on engineered Jurkat cells or naturally on cynomolgus monkey primary CD8+ T cells (the cells are named under assay); also called Cynomolgus Monkey TIGIT Jurkat; Cynomolgus Monkey CD8
T6 sequence (chain, as listed by the source limits assumed): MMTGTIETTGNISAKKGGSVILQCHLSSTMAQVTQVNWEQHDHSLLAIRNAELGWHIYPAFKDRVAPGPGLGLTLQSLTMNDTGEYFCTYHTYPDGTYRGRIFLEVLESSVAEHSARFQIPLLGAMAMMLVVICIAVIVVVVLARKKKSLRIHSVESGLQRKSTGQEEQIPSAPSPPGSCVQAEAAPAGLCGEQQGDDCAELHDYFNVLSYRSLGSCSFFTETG

T1 sequence (chain, as listed by the source limits assumed): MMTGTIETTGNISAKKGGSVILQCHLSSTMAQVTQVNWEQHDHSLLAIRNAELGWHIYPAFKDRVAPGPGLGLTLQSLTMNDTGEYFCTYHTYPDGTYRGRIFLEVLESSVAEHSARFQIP

B1: SEC1 mouse IgG2a N297A (antibody)
heavy: EVQLVESGGGLTQPGKSLKLSCEASGFTFSSFTMHWVRQSPGKGLEWVAFIRSGSGIVFYADAVRGRFTISRDNAKNLLFLQMNDLKSEDTAMYYCARRPLGHNTFDSWGQGTLVTVSSAKTTAPSVYPLAPVCGDTTGSSVTLGCLVKGYFPEPVTLTWNSGSLSSGVHTFPAVLQSDLYTLSSSVTVTSSTWPSQSITCNVAHPASSTKVDKKIEPRGPTIKPCPPCKCPAPNLLGGPSVFIFPPKIKDVLMISLSPIVTCVVVDVSEDDPDVQISWFVNNVEVHTAQTQTHREDYASTLRVVSALPIQHQDWMSGKEFKCKVNNKDLPAPIERTISKPKGSVRAPQVYVLPPPEEEMTKKQVTLTCMVTDFMPEDIYVEWTNNGKTELNYKNTEPVLDSDGSYFMYSKLRVEKKNWVERNSYSCSVVHEGLHNHHTTKSFSRTPGK
light: DIVMTQSPSSLAVSPGEKVTMTCKSSQSLYYSGVKENLLAWYQQKPGQSPKLLIYYASIRFTGVPDRFTGSGSGTDYTLTITSVQAEDMGQYFCQQGINNPLTFGDGTKLEIKRADAAPTVSIFPPSSEQLTSGGASVVCFLNNFYPKDINVKWKIDGSERQNGVLNSWTDQDSKDSTYSMSSTLTLTKDEYERHNSYTCEATHKTSTSPIVKSFNRNEC
notes: also called SEC1 IgG2a N297A
binding result [1]: no binding (tested: 302.8 to 0.42 nM) | Kd [2]: 0.32 nM | koff [2]: 0.0006 s⁻¹ | kon [2]: 1.9e+06 M⁻¹ s⁻¹ | Kd [3]: 4.7 nM | koff [3]: 0.0079 s⁻¹ | kon [3]: 1.7e+06 M⁻¹ s⁻¹

B2: SEC1 human IgG4 S228P (antibody)
heavy: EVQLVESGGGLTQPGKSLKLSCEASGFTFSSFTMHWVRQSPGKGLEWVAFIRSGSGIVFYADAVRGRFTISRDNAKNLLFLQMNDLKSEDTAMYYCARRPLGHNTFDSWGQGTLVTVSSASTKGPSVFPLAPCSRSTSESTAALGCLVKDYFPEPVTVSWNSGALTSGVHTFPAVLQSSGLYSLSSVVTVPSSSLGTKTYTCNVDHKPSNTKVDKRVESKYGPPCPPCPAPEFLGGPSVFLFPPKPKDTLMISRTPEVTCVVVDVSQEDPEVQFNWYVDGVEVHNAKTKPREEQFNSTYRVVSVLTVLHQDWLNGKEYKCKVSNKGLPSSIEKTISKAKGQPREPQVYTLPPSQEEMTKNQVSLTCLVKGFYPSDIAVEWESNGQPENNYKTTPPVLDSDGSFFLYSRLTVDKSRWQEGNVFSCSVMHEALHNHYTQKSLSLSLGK
light: DIVMTQSPSSLAVSPGEKVTMTCKSSQSLYYSGVKENLLAWYQQKPGQSPKLLIYYASIRFTGVPDRFTGSGSGTDYTLTITSVQAEDMGQYFCQQGINNPLTFGDGTKLEIKRTVAAPSVFIFPPSDEQLKSGTASVVCLLNNFYPREAKVQWKVDNALQSGNSQESVTEQDSKDSTYSLSSTLTLSKADYEKHKVYACEVTHQGLSSPVTKSFNRGEC
notes: Chimeric: hamster variable regions, human IgG4 S228P and human kappa constant regions; also called SEC1 (IgG4 S228P)
Kd [4]: 3.6 nM | Kd [5]: 0.41 nM | binding result [6]: no binding
